{
  "source": "paper PMC6801465",
  "biological_target": "EGFR on the cell surface (Huh-7, U87MG, MDA-MB-231) (human) (UniProt P00533)",
  "assay": "flow cytometry",
  "conditions": "2'-OMe on U, G, C, all A (positions 8, 14, 19, 21, 24) are DNA, Binding buffer: serum-free DMEM + 100 ug/mL tRNA, aptamers denatured 95 C 5 min, snap cooled on ice 10 min, ELONA 1 h (temperature not given)",
  "data": [
    {"sequence": "UGCUUUGAUGUCGAUUCGACAGGAGGC [CL-4RNV616]", "values": [
      {"measurement": "Kd", "setting": "Huh-7 cells", "value": 71.2, "unit": "nM"},
      {"measurement": "Kd", "setting": "MDA-MB-231 cells", "value": 89.8, "unit": "nM"},
      {"measurement": "Kd", "setting": "U87MG cells", "value": 112, "unit": "nM"}
    ]}
  ]
}
